We go through two molecules from US20130071417A1 (GOVERNING COUNCIL OF THE UNIVERSITY OF TORONTO, published 2013).

The chains are these.
B2: FLAG-tagged rCEA N (CEA residues 1-214 with His-tag and FLAG epitope) (other, human, UniProt P06731 35-248, looked up, not shown: small tags and cut ends)
chain: KLTIESTPFNVAEGKEVLLLVHNLPQHLFGYSWYKGERVDGNRQIIGYVIGTQQATPGPAYSGREIIYPNASLLIQNIIQNDTGFYTLHVIKSDLVNEEATGQFRVYPELPKPSISSNNSKPVEDKDAVAFTCEPETQDATYLWWVNNQSLPVSPRLQLSNGNRTLTLFNVTRNDTASYKCETQNPVSARRSDSVILNVLYGPDAPTISPLNTS
notes: range 1-214; Made in E. coli; The extra C-terminal CEA residues were added for stability and yield; also called FLAG-tagged rCEA N domain; FLAG-tagged N domain

Experiment [1] deals with T1, His-tagged rCEA A3B3 domain (residues 445-656, C-terminal His-tag) (human, UniProt P06731 479-690).
T1 construct: also called rCEA A3B3 fragment
T1 sequence: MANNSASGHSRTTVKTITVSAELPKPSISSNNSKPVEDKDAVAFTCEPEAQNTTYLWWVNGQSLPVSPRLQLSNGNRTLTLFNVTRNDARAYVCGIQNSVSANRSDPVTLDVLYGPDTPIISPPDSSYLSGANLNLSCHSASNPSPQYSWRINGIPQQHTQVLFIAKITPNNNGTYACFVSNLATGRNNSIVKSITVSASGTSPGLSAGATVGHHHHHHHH
Nature of the experiment: ELISA; untagged rCEA N coated, His-tagged module in solution, anti-His HRP detection. A general note: An ELISA detects its analyte on a solid surface through an enzyme-linked reagent.

Experiment [2] addresses B2. Nature of the experiment: ELISA; target coated (2 µg per well), FLAG-tagged rCEA N titrated, anti-FLAG M2 HRP detection. Here is the method:
(§1) Briefly, 96-well flat-bottomed Falcon microtiter plates (Becton-Dickinson Biosciences; Franklin Lakes, N.J.) were coated with 2 μg of purified CEA modules or full length CEA per well. After blocking with PBS containing Tween (0.05% v/v) and bovine serum albumin (1% w/v), the plates were then incubated for one hour at room temperature with increasing concentrations of the FLAG-tagged rCEA N diluted in PBS-Tween (0.05%; 100 μL). The presence of bound FLAG-tagged rCEA was detected by incubating the plates for 1 hour at room temperature with horseradish peroxidase (HRP) coupled anti-FLAG monoclonal antibody M2 (1:5,000 dilution; Sigma-Aldrich). The chromogenic HRP substrate 3,3′,5,5′-tetramethylbenzidine (TMB; Sigma) was used to measure at 450 nm the amount of bound FLAG-tagged N domain.

The target of experiment [3] is T2, full length tumour glycoform of human CEA (Sigma-Aldrich) (human, UniProt P06731 35-685, glycosylated (tumour glycoform)).
T2 construct: mature; Bought protein; also called FL-CEA; full length CEA
T2 sequence (looked up): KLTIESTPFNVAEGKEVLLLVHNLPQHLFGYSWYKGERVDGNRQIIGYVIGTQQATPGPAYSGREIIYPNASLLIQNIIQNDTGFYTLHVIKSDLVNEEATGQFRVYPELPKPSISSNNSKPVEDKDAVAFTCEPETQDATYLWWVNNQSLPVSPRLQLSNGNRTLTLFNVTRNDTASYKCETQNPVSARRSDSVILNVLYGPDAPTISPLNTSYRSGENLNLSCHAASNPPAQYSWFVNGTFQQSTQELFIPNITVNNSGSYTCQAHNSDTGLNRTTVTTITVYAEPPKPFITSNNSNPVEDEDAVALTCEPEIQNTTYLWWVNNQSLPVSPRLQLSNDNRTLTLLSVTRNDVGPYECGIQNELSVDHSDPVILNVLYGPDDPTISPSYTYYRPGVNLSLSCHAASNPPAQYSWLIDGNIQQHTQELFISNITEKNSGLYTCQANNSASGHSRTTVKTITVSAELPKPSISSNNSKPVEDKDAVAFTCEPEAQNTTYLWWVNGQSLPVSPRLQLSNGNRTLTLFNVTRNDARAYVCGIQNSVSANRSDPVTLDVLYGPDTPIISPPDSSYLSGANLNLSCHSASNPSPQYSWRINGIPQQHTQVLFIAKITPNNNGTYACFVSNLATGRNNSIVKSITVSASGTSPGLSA
Described as above. The procedure:
as §1

Experiment [4] concerns the target T1, His-tagged rCEA A3B3 domain (residues …). The experiment is described as above. Here is the method:
as §1

B1: untagged rCEA N domain (cleaved rCEA N, residues 1-132) (other)
chain: KLTIESTPFNVAEGKEVLLLVHNLPQHLFGYSWYKGERVDGNRQIIGYVIGTQQATPGPAYSGREIIYPNASLLIQNIIQNDTGFYTLHVIKSDLVNEEATGQFRVYPELPKPSISSNNSKPVEDKDAVAFT
notes: Made in E. coli, so it has no N-glycans; also called WT rCEA N domain; untagged WT rCEA N domain
With B1, the binding result in experiment [1] and in experiment [2] was “binds” each time.
For B2, the binding result in experiment [3] and in experiment [4] was “binds” each time.
